Legend:
[1] = tested on: T1, CC(C)(COP(=O)(O)OP(=O)(O)OC[C@H]1O[C@@H](n2cnc3c(N)ncnc32)[C@H](O)[C@@H]1OP(=O)(O)O)[C@@H](O)C(=O)NCCC(=O)NCCSC(=O)CCC(=O)O; experiment: steady-state kinetics, 5-ALA formation, nonlinear Michaelis-Menten fit; type: biochemical, Rhodobacter capsulatus; details: 37 °C, Tris pH 7.5, pyridoxal phosphate, co-substrate glycine, succinyl-CoA 5-150 μM
T1 construct: codon-optimized hemA cloned in pET28a, expressed in E. coli BL21(DE3), Ni-NTA purified
Description: (§1) steady-state kinetics, 5-ALA formation, nonlinear Michaelis-Menten fit on ALAS from Rhodobacter capsulatus SB1003 (hemA^Rc; pET28a-SB)

NCC(=O)O = tested on: T2, NCC(=O)O; experiment: as above; type: biochemical, Rhodobacter capsulatus; details: 37 °C, Tris pH 7.5, pyridoxal phosphate, co-substrate succinyl-CoA, glycine 1-40 mM
T2 construct: codon-optimized hemA cloned in pET28a, expressed in E. coli BL21(DE3), Ni-NTA purified
Description: as §1

ALAS from Rhodobacter capsulatus SB1003 (hemA^Rc; pET28a-SB) (Rhodobacter capsulatus SB 1003; E27V/F363Y/G105C), sequence (chain, as listed by the source E27V F363Y G105C): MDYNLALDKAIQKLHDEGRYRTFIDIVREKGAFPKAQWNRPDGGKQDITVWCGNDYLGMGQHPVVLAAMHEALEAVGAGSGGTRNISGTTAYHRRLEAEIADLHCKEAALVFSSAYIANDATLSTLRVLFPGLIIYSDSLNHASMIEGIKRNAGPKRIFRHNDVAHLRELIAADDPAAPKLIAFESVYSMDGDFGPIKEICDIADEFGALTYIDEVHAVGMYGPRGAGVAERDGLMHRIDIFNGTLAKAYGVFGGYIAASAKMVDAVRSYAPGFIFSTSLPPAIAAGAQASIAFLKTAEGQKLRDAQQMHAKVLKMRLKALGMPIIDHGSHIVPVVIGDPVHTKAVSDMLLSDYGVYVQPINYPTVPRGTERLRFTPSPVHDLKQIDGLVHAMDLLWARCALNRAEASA
ALAS from Rhodobacter capsulatus SB1003 (hemA^Rc; pET28a-SB) (Rhodobacter capsulatus SB 1003), sequence (chain, as listed by the source): as the sequence (chain, as listed by the source E27V F363Y G105C) above, with V27E, C105G, Y363F counted along it

Substance | Km [1] | kcat [1] | kcat/Km [1] | Km (NCC(=O)O) | kcat (NCC(=O)O) | kcat/Km (NCC(=O)O)
ALAS from Rhodobacter capsulatus SB1003 (hemA^Rc; pET28a-SB) (Rhodobacter capsulatus SB 1003) | 17.5 ± 2.65 µM | 2.52 ± 0.22 s⁻¹ | 140000 ± 30000 M⁻¹ s⁻¹ | 2660 ± 260 µM | 2.52 ± 0.22 s⁻¹ | 950 ± 230 M⁻¹ s⁻¹
ALAS from Rhodobacter capsulatus SB1003 (hemA^Rc; pET28a-SB) (Rhodobacter capsulatus SB 1003; E27V/F363Y/G105C) | 16.88 ± 2.21 µM | 2.94 ± 0.15 s⁻¹ | 170000 ± 20000 M⁻¹ s⁻¹ | 2130 ± 220 µM | 2.94 ± 0.15 s⁻¹ | 1270 ± 180 M⁻¹ s⁻¹
